Measurements published in the supplement of paper PMC12764529.
± gives the half width of the 95% confidence interval.

Tests used:
[1] = folding stability dG unfold from trypsin proteolysis; higher = more stable
Experimental: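 Folding stability of de novo designed mini-proteins (<80 aa, no Cys; designed by TrROS, TrMRF, ProteinMPNN and the joint model) was measured by cDNA display proteolysis with trypsin and chymotrypsin. Each protease was used at 11 concentrations in a threefold dilution series plus a no-protease condition. K50 was inferred by Bayesian fitting of sequencing counts, and dG unfold was derived against a sequence-predicted unfolded-state K50 (Tsuboyama et al. method). Sequences shown include variable-length N-terminal GS-type padding (SAGGSAGG...) inside a display construct carrying a PA tag. Rows were kept only if the AF2 dimer inter-PAE was >15, to exclude likely homo-oligomers.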

[2] = folding stability dG unfold (combined trypsin and chymotrypsin); higher = more stable
Procedure, shortened: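 K50 was inferred by Bayesian fitting of sequencing counts obtained after protease digestion of designed mini-proteins. Unfolding free energy was derived by comparison with a sequence-predicted unfolded-state K50 and a shared folded-state K50, for each protease or both combined. The mini-proteins were under 80 residues, had no cysteine, were carried in a PA-tagged cDNA display construct, and were kept only if AlphaFold2 dimer inter-PAE exceeded 15.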

Sequence	folding stability dG unfold [1] [kcal/mol]	folding stability dG unfold [2] [kcal/mol]
SAGGSAGGSAGGSEPWYVRIQIPDGNQIMFPPGSEAKIEIPKEEKDIRITEVIPADDIKSAGGSAGGSAGGS [r4_122_TrROS]	0.0224 ± 0.13	< -1
SAGGSAGGSAGGSERHTAVLVDTGFRISPAPEEGGLRLEAGASLTIREVPEDALKEVLGSAGGSAGGSAGGS [r4_274_TrMRF]	-0.398 ± 0.26	< -1
SAGGSAGGSAGGSKKTAVLKVGDKWIPLEIDEDKVTLIYPDGKKEEISLEDIPENTISDASAGGSAGGSAGG [r7_748_TrMRF]	0.0901 ± 0.064	-0.212 ± 0.11
SAGGSAGGSAGGSMAIPVYLKIENKVLTSLDELKEAVESGKPIEIERIEAFDLSPDEEVSAGGSAGGSAGGS [r4_479_TrMRF]	-0.74 ± 0.35	< -1
SAGGSAGGSAGGSMPLRKVTVSRPDSTLEFEFPESVPEEEVKEKLKKEYPNAEVKVEPESAGGSAGGSAGGS [r4_155_JUSTAS]	-0.633 ± 0.25	< -1
SAGGSAGGSAGGSMVLYERVPASELPPGKGETLLIREVTVEKLPGNRIILNEGVKVIPPSAGGSAGGSAGGS [r4_444_JUSTAS]	-0.186 ± 0.15	-0.831 ± 0.24
SAGGSAGGSAGGVPEEEIRERVEAAGLTAPDAEVVYETPENITVRVTVPPTGLVFERLESAGGSAGGSAGGS [r10_604_JUSTAS]	0.0893 ± 0.048	-0.367 ± 0.1
SAGGSAGGSAGGVRIRPPNGEWIRIDNAPDDEDIKDKLKKHPNVKPEIDPDTNEAWIPVSAGGSAGGSAGGS [r10_792_TrROS]	-1.09 ± 0.42	< -1
SAGGSAGGSAGGYKVKVYNPENGKPQEIPLPPNDIPELLDKLPNGPWWIRVKDPDRWIPLSAGGSAGGSAGG [r7_188_TrROS]	-1.05 ± 0.51	-0.562 ± 0.57
SAGGSAGGSAGIPNLIAYEVSKEGKPVKIIVKSPNGEEYEITVSPNESIPENIEILKVEVGSAGGSAGGSAG [r3_421_TrMRF]	0.685 ± 0.034	-0.0441 ± 0.15
SAGGSAGGSAGITIEFPEEENNFRVENPNDGKKHEIPGTPDEIKEYALDKFPGRPIKIHPSAGGSAGGSAGG [r11_614_TrROS]	0.11 ± 0.079	-0.511 ± 0.43
SAGGSAGGSAGKIKAYAEKDVPAEIVAKAIEEEIREAFPDNPEEIKGIEVEPDGFLSETISAGGSAGGSAGG [r17_43_TrMRF]	-0.636 ± 0.15	< -1
SAGGSAGGSAGKVKVKVESNPDGTLIIAEEFEDFVVIVELKVDDDGIHFHPHPVVLSKELSAGGSAGGSAGG [r17_72_TrMRF]	0.0484 ± 0.1	-0.695 ± 0.38
SAGGSAGGSAGLVKLKDKNGKLITLEVKEVEVVEVKEVTLKPKPKPKKTLKLSEEELKKLSAGGSAGGSAGG [r17_484_TrROS_Hall]	-0.143 ± 0.075	-0.494 ± 0.25
SAGGSAGGSAGMEIEVEVDPSTNTVKLTKKIGGKWVEATVTRTPGTGTITLPDGSTLKLTSAGGSAGGSAGG [r11_395_JUSTAS]	-0.709 ± 0.47	< -1
SAGGSAGGSAGMEIPEDWTVVEESEVPDERLVTVHNPKTGELYVVTQPPATGEETVERYLSAGGSAGGSAGG [r11_896_JUSTAS]	0.0248 ± 0.2	< -1
SAGGSAGGSAGMILTEEVTVAVPTLSTADGTRHTTTVPELVVVELKLPPVPPEAVEKLLASAGGSAGGSAGG [r11_318_JUSTAS]	-0.0441 ± 0.019	-0.887 ± 0.16
SAGGSAGGSAGMMEEKLIKEYEDPNGGKKYTIKLVKDPKTGKEKIVKETIEPNKKTTEIKNLSAGGSAGGSA [r18_444_JUSTAS]	-0.36 ± 0.21	-0.365 ± 0.62
SAGGSAGGSAGNMKEVEFTIPGAPPDELADNLPPGIKDVEIERNPEARENGGYSIKAYVDSAGGSAGGSAGG [r11_1002_TrROS]	-0.0749 ± 0.17	< -1
SAGGSAGGSAGNVEEIADQLKPNGYKISTVEPTDDQVEVEIYNPESKEPRKFRIPPNQPISAGGSAGGSAGG [r11_428_TrROS]	-0.414 ± 0.24	< -1
SAGGSAGGSAGPITITDIPSEEEAAALIAARPGVEVERKPVTLSEEERWEVTLTLPGEAASAGGSAGGSAGG [r17_542_JUSTAS]	0.157 ± 0.058	-0.722 ± 0.18
SAGGSAGGSAGPKWKQITIPMEPGQSVNEIADEIKDELGPGKRVHVSMHENGWMTIYVRKSAGGSAGGSAGG [r17_20_TrROS]	-0.484 ± 0.23	< -1
SAGGSAGGSAGPPTSILEVKPGGEVTIKEGGTPVTVPSSVPYINLPEGGSAGSVEVPPELSAGGSAGGSAGG [r11_647_JUSTAS]	0.394 ± 0.042	-0.314 ± 0.31
SAGGSAGGSAGTITTTTDPATGEYTVTIPIASGDGTPVGTIPVTVPKSDPSAAAAFIAATSAGGSAGGSAGG [r11_77_JUSTAS]	0.106 ± 0.11	-0.438 ± 0.29

Sequence	folding stability dG unfold [1] [kcal/mol]	folding stability dG unfold [2] [kcal/mol]
SAGGSAGGSAGTIVTPTATYRIEKLPDKRVRIVVGDKEYEVRVGEPFYLPGGVPFEVLDESAGGSAGGSAGG [r11_147_TrMRF]	0.35 ± 0.13	-0.299 ± 0.19
SAGGSAGGSAGTVTVDPEKGVVYVPLPEPISPEEVIEKRKEPELDVKILSVGENVAVILVSAGGSAGGSAGG [r17_323_JUSTAS]	0.493 ± 0.027	-0.218 ± 0.11
SAGGSAGGSAGVPVPGTDVPAEPITVLKKNPDGTVTKLKDESLTLEEIKAKLPGEVEFVGSAGGSAGGSAGG [r17_125_JUSTAS]	0.0884 ± 0.14	< -1
SAGGSAGGSAKITIPASQITHVDLETGELLVDHPSGRPIIFRVDPDRPDLILVEDPSGLSLGSAGGSAGGSA [r18_418_TrMRF]	-0.703 ± 0.15	< -1
SAGGSAGGSALVRIEFPNGREIEIPNNMPYEQAKDVAVELAEEHGKNGRPFKVKIEEIKPPGSAGGSAGGSA [r18_213_TrROS]	0.439 ± 0.096	-0.511 ± 0.56
SAGGSAGGSAMPEPVTITVRVPYEPDEAEAAAERIREEEYPDAKSITVTRDPATGTATFTVNSAGGSAGGSA [r18_390_JUSTAS]	-0.222 ± 0.18	< -1
SAGGSAGGSANSSSLPPNYVTPLPITVTDSRPGSYMPLEEREARAQALAEANPGVTVTVVRESAGGSAGGSA [r18_499_JUSTAS]	-0.373 ± 0.099	< -1
SAGGSAGGSATVIIMVDPDDIEEALKEAPPNSKVMIHNPDNGYMFEITPNKLEIVEPIPPGDSAGGSAGGSA [r18_246_TrROS]	0.279 ± 0.058	-0.0908 ± 0.23
SAGGSAGGSAVEEEVERIEKAVGVPIDPGSSVTKVKEGVEPVLPYRMDIKPGVESPELLLLSAGGSAGGSAG [r3_427_JUSTAS]	-0.908 ± 0.53	< -1
SAGGSAGGSDPVVIPVPMDDFSKETIKNFIDEAPDDNRPIQMNFPNGKPIYIQVEPDGDIKPVSAGGSAGGS [r12_1054_TrROS]	0.557 ± 0.041	< -1
SAGGSAGGSDWFPIRVEDIEYERDPADGRDSVTIEAQFPGKPHTFTIPPNAPIKPGDELWIPFSAGGSAGGS [r20_49_TrROS]	-1.9 ± 0.8	< -1
SAGGSAGGSGEEIIKKIAESLIPGHPNLKPDKITYDPKTGKITIKTKNPKAAKLLKELDLIKPSAGGSAGGS [r12_623_TrMRF]	-0.446 ± 0.28	< -1
SAGGSAGGSGKWMTAKELLKEFKPGKTIMIRMPPGTEIPPNIKPKGTFPGNGWMMIKIPPNDISAGGSAGGS [r12_356_TrROS]	-0.2 ± 0.45	-0.274 ± 0.42
SAGGSAGGSGMEKKTITITIPVPPDRDVTEEEIKETLKPLGYEEVDIEEIKPAGNSYTVTAVISAGGSAGGS [r20_79_JUSTAS]	0.212 ± 0.13	-0.427 ± 0.52
SAGGSAGGSIAPDEPLVLEVEVEEVVPGVGEVLLPEWIAEEFPDAVIEVETDGTPVKVTIYRPSAGGSAGGS [r12_900_TrMRF]	0.743 ± 0.045	0.0203 ± 0.076
SAGGSAGGSIKVPKNSKVTVLYEKGGKKIEVSGIVDPKTGKILETDSLENLPDAKIVEIKVEDSAGGSAGGS [r12_6_TrMRF]	-0.742 ± 0.15	< -1
SAGGSAGGSKFPKKFTVEVYTLTKKLKTPEGKLKTETTVLIEKTEEIKPLPEIDEERVEKVLLSAGGSAGGS [r12_1060_JUSTAS]	0.166 ± 0.71	< -1
SAGGSAGGSKIKILFDPNMTLEEAIELAEKLTKEFDAEVELEIIPKPKPKPLPVIDPENPKLLSAGGSAGGS [r12_159_TrMRF]	0.252 ± 0.028	-0.72 ± 0.3
SAGGSAGGSKITITIAPGMSEEEAKKLAEELAKEFNIEIEVKIEPLKPVEKKFYVDKETNEIKSAGGSAGGS [r12_159_TrROS_Hall]	-0.357 ± 0.19	< -1
SAGGSAGGSMIVVKTENGEEIEISKDALKPGMTAEELKAKLPPGVKKIEIVEVKEVEVEVEEESAGGSAGGS [r20_161_TrROS_Hall]	-0.865 ± 0.4	< -1
SAGGSAGGSMKPVLTIPASVTDPEVAIAILREAKAALPEGTQLEVVMPGGAEEELKKAGLILKSAGGSAGGS [r12_992_JUSTAS]	-1.4 ± 0.71	< -1
SAGGSAGGSMKTALLDDGKTIPLPEEELPPDAGVEEVAKKIPPEAKKLTVKEPDGSTKTVPLASAGGSAGGS [r20_161_JUSTAS]	-0.0521 ± 0.2	< -1
SAGGSAGGSMTETVVLPYPLPPGVPFHIELPDGSKSVSADPETGTLTVLVKKGTEEAVKEALASAGGSAGGS [r12_476_JUSTAS]	-0.508 ± 0.12	-0.989 ± 0.27
